# Numbered stars: 1 amine (or outer) side, 2 acyl side, 3 side chain; on linkers, the order of the positions; unused ones are H or OH. Bridge positions count the residues as written; N and C are the ends. Side chains are listed from the residue outwards. Ends that are not written are not given here. * marks the point of attachment. C20 diacid = O=C(O)CCCCCCCCCCCCCCCCCCC(=O)*; γGlu = O=C(O)[C@H](CCC(=O)[*:2])N[*:1]
# T1: rat calcitonin receptor (rat, UniProt P32214 25-516)
# T1 construct: whole, on cells; Used as membranes prepared from BHK tk'ts 13 cells transiently transfected with the rat calcitonin receptor (Assay VIII); also called rCTR; rat calcitonin (a) receptor
# T1 sequence (looked up): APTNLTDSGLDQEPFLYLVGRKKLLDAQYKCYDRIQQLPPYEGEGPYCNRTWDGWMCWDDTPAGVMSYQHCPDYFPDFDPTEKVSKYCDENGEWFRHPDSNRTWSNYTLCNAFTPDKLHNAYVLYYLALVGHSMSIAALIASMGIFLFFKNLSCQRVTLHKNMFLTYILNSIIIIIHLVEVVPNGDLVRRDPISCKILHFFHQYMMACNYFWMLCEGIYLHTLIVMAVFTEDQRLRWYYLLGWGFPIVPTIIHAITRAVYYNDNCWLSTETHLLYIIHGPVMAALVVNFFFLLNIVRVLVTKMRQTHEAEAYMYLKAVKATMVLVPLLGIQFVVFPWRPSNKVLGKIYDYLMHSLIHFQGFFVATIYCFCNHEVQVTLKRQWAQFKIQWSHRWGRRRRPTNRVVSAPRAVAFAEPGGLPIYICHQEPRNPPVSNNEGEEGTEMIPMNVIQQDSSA
# T2: rat amylin receptor (rat calcitonin receptor + rat RAMP 3) (rat, UniProt P32214 25-516; Q9JJ73 23-147)
# T2 construct: whole, on cells; Used as membranes prepared from BHK tk'ts 13 cells transiently transfected with rat calcitonin receptor and rat RAMP 3 (Assay VI); also called rAmylin-R; rat amylin 3(a) receptor
# T2 sequence (looked up) 1: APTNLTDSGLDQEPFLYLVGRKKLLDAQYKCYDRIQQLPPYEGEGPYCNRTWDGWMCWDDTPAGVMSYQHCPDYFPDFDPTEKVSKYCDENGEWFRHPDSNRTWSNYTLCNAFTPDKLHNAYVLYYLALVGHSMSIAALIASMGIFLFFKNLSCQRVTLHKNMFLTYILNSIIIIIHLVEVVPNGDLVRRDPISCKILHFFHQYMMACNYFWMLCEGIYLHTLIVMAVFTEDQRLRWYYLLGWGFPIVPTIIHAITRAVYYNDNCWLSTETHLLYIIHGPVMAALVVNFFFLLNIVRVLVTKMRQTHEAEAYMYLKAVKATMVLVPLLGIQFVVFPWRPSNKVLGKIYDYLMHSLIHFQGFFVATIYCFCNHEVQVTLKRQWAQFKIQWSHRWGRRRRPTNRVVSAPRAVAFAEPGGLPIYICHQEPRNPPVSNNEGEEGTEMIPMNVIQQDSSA
# T2 sequence (looked up) 2: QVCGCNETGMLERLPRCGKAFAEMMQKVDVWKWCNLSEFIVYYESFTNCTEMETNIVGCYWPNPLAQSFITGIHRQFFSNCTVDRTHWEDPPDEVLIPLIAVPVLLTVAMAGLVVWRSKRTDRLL
# Key:
# [1] = target: T1, rat calcitonin receptor; assay: SPA competition with 125I-calcitonin, membranes of BHK cells with rat CTR (Assay VIII)
# [2] = target: T2, rat amylin receptor (rat calcitonin …); assay: SPA competition with 125I-rat amylin, membranes of BHK cells with rat CTR + rat RAMP3 (Assay VI)
# Method: The binding assay was performed using scintillation proximity assay (SPA) beads (RPNQ0001) from PerkinElmer and cell membranes from the Amylin 3(a)/CRE-luc cells (as described in Assay (II)) were used. Membranes were prepared in the following way; the cells were rinsed with PBS and incubated with Versene for approximately 5 min before harvesting. The cells were flushed with PBS and the cell-suspension was centrifuged for 5 min at 1000 rpm. Cells were homogenized (ultrathurrax) in a buffer containing 20 mM Na-HEPES and 10 mM EDTA (pH 7.4) and centrifuged at 20.000 rpm for 15 min. The resulting pellet was resuspended, homogenized and centrifuged (20.000 rpm, 15 min) in a buffer containing 20 mM Na-HEPES and 0.1 mM EDTA (pH 7.4, buffer 2). The resulting pellet was resuspended in buffer 2 and protein concentration was measured (BCA protein Assay, Pierce). The homogenate was kept cold during the whole procedure. The membranes were kept at −80° C. until use. The assay was performed in a 384 well Optiplate (PerkinElmer) in a total volume of 40 ul. Membranes were mixed with SPA beads. Final concentration of membranes 35 ng/μL final and SPA beads was 0.05 mg/well. Test-compounds were dissolved in DMSO and further diluted in assay buffer (50 mM Hepes, pH 7.4, 1 mM CaCl2, 5 mM MgCl₂, 0.1% OA and 0.02% Tween20). […] The final mixture was incubated with shaking at 400 rpm for 120 min at 25° C. prior to centrifugation (1500 rpm, 10 min). Samples were analyzed on TopCounter™ (Packard). The IC₅₀ was calculated using (one site binding competition analysis) GraphPad Prism5 as a measure of receptor affinity.
# Cells were grown in DMEM with 10% FBS and 1% Pen/Strep. Approximately 48 hours after transfection, the cells were harvested and membranes were prepared.
binder,measurement,setting,value
"K([γGlu-γGlu-C20 diacid])CNTATCATQRLADFLRHSSPNFGAIPSSTNVGSRTY-NH2 (disulfide 2-7; N-terminus assumed; SMILES CC[C@H](C)[C@H](NC(=O)[C@H](C)NC(=O)CNC(=O)[C@H](Cc1ccccc1)NC(=O)[C@H](CC(N)=O)NC(=O)[C@@H]1CCCN1C(=O)[C@H](CO)NC(=O)[C@H](CO)NC(=O)[C@H](Cc1c[nH]cn1)NC(=O)[C@H](CCCNC(=N)N)NC(=O)[C@H](CC(C)C)NC(=O)[C@H](Cc1ccccc1)NC(=O)[C@H](CC(=O)O)NC(=O)[C@H](C)NC(=O)[C@H](CC(C)C)NC(=O)[C@H](CCCNC(=N)N)NC(=O)[C@H](CCC(N)=O)NC(=O)[C@@H](NC(=O)[C@H](C)NC(=O)[C@@H]1CSSC[C@H](NC(=O)[C@@H](N)CCCCNC(=O)CC[C@H](NC(=O)CC[C@H](NC(=O)CCCCCCCCCCCCCCCCCCC(=O)O)C(=O)O)C(=O)O)C(=O)N[C@@H](CC(N)=O)C(=O)N[C@@H]([C@@H](C)O)C(=O)N[C@@H](C)C(=O)N[C@@H]([C@@H](C)O)C(=O)N1)[C@@H](C)O)C(=O)N1CCC[C@H]1C(=O)N[C@@H](CO)C(=O)N[C@@H](CO)C(=O)N[C@H](C(=O)N[C@@H](CC(N)=O)C(=O)N[C@H](C(=O)NCC(=O)N[C@@H](CO)C(=O)N[C@@H](CCCNC(=N)N)C(=O)N[C@H](C(=O)N[C@@H](Cc1ccc(O)cc1)C(N)=O)[C@@H](C)O)C(C)C)[C@@H](C)O, Analogue of human amylin; also called compound 52)",IC50,[1],159 nM
same,IC50,[2],0.335 nM
